What is called Kd is the concentration at which binding is half-saturated. The low end stands for higher affinity, the high end for lower affinity. By koff is commonly meant a measure of how fast the partners let go of each other. A higher koff goes with fast dissociation. A word on the kon: it is the rate constant with which the complex forms. Low values mean slow association, high ones fast association.

For one substance, Kd, koff and kon results are on record in patent CN114106161A.

The target in the assay is SARS-CoV-2 S1蛋白 (ACRO Biosystems) (SARS-CoV-2) (UniProt P0DTC2). Put plainly: BLI, biotinylated SARS-CoV-2 S1 on SA sensor, 1:1 fit. For orientation: In BLI a coated tip is dipped into the sample, and binding shifts an interference pattern.

On to “针对SARS-CoV和SARS-CoV-2S1的人源抗体CR3022 (antibody)”, for which the Kd came out at 0.0866 nM, the koff is 1.9e-05 s⁻¹ and the kon turned out to be 220000 M⁻¹ s⁻¹.
